These results are taken from patent publication US20230055408A1 (JIANGSU HENGRUI MEDICINE, published 2023).

In test [1] the target is T1, human CEA protein on the cell surface (human, UniProt P06731 35-685).
T1 construct: whole, on cells; also called CEACAM-5; CD66e
T1 sequence (looked up): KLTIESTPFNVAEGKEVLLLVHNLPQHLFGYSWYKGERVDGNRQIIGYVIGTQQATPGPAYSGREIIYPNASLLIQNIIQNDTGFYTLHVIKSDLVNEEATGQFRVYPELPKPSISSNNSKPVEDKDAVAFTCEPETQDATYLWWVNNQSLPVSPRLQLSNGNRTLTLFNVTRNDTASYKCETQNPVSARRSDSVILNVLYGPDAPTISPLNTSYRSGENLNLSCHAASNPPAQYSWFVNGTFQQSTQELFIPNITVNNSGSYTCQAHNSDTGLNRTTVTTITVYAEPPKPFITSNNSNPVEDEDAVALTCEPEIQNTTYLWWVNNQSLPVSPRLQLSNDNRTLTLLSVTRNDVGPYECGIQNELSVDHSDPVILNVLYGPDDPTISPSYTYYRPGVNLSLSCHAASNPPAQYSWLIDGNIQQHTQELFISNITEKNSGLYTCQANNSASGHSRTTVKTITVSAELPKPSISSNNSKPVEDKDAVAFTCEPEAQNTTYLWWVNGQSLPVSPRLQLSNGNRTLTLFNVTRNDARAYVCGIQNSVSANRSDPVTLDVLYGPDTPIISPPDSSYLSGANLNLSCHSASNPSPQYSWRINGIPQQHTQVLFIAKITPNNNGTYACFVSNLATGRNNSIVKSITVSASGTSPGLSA
The test can be described thus: FACS, MKN45 cells. A general note: A flow cytometer gives signals particle by particle.

The target of test [2] is T2, human CEACAM1 expressed on CHO cell surface (human, UniProt P13688 35-526).
T2 construct: also called CEACAM1-CHO
T2 sequence: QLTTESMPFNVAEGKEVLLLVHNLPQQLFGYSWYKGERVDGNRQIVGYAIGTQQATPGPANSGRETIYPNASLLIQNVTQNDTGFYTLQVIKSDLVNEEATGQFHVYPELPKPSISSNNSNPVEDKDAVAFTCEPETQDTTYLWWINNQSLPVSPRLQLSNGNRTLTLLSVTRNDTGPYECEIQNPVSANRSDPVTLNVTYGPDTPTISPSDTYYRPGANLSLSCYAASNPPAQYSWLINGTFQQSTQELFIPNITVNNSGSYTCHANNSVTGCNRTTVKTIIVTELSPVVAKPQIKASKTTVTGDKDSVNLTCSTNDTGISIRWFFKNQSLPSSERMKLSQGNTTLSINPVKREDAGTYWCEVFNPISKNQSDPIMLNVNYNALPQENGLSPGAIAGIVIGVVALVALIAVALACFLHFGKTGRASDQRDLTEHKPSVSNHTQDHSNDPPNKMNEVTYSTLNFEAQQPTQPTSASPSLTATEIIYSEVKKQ
The test can be described thus: FACS, CEACAM1-CHO cells.

The target of test [3] is T3, monkey CEA expressed on CHO cell surface (cynomolgus monkey).
T3 construct: also called cynoCEA-CHO; monkey CEA proteins on the cell surface
T3 chain: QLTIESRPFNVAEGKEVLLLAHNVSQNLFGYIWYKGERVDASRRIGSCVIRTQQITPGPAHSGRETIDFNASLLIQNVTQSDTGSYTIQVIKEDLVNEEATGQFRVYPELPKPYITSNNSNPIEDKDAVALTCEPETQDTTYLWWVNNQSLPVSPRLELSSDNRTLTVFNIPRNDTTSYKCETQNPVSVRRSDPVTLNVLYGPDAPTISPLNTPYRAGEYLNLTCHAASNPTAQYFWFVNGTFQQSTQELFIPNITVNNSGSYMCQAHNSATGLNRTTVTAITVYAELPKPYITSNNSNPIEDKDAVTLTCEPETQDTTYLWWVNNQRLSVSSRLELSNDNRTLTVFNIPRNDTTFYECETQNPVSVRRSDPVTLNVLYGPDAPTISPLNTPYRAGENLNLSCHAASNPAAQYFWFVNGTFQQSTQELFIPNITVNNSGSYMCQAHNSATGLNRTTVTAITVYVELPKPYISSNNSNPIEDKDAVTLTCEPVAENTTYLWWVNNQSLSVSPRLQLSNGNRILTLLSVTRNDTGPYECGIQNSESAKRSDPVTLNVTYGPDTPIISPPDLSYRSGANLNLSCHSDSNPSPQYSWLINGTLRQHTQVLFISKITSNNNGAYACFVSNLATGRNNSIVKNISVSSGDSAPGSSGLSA
The test can be described thus: FACS, cynoCEA-CHO cells.

In test [4] the target is T1, human CEA protein on the cell surface. The test can be described thus: FACS, MKN45 cells, -/+ 5 ug/mL sCEA as competitor. How it is done: The gradient-diluted antibody and the pre-incubated mixed solution of the antibody and sCEA was added into each well. The plate was incubated at 4° C. for 60 min and centrifuged, and the supernatant was removed. The cells were washed twice with pre-cooled PBS containing FBS at final concentration 10%. 50 μL of 1:200 diluted secondary antibody Alexa Fluor@488 goat anti-human IgG (H+L) (Lifetechologies, Cat #A11013) was added. […] The cells were washed twice with 250 μL of pre-cooled PBS with FBS at final concentration 10%. 100 μL of pre-cooled PBS was added to each well to resuspend the cells. The suspension was analyzed by a flow cytometer (FACS) (BD, FACSverse) for fluorescence signal values.

Test [5] addresses T4, human soluble CEA (human, UniProt P06731 35-685, limits assumed).
T4 construct: also called sCEA
T4 sequence (looked up): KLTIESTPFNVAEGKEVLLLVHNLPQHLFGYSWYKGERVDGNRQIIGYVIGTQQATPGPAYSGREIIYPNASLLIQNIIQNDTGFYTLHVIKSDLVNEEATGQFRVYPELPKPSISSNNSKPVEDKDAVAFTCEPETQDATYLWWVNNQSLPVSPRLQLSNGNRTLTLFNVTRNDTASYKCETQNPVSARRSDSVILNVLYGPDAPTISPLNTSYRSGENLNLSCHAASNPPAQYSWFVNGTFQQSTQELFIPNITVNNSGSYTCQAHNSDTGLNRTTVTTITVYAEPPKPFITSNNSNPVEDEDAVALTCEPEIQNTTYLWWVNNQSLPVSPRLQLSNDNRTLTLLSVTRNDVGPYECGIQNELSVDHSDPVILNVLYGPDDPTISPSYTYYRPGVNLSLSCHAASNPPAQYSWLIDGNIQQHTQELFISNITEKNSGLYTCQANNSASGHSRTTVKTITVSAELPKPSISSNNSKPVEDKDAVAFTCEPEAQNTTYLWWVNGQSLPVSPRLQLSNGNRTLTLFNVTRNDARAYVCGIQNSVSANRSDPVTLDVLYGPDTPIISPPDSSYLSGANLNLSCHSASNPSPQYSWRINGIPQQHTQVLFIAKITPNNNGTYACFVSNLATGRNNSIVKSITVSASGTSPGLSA
The test can be described thus: SPR (Biacore T200), antibody captured, soluble CEA as analyte, 1:1 Langmuir. How it is done:
The affinity of a test humanized antibody for human and monkey soluble CEA was determined using a Biacore (GE, T200) instrument. According to the method in the instructions of a human antibody capture kit (GE, Cat #BR-1008-39), the human antibody capture antibody was covalently conjugated to a biosensor chip CM5 (GE, Cat #BR-1005-30) of the Biacore instrument to affinity-capture a certain amount of the test antibody, then a series of concentration gradients of soluble CEA antigens were allow to flow through the surface of the chip, and reaction signals were detected in real time using Biacore, so that an association and dissociation curve was obtained. After each cycle of dissociation was completed, the biochip was washed and regenerated with a regeneration solution prepared in the human antibody capture kit. The data obtained from the experiment were fitted with the (1:1) Langmuir model using BIAevaluation version 4.1 software to obtain affinity values.
For orientation: SPR reads the build-up and loss of mass on a sensor chip optically.

Test [6] concerns the target T1, human CEA protein on the cell surface. The test can be described thus: FACS, MKN45 cells. The source holds these as a separate data set.
For test [7], the target named is T3, monkey CEA expressed on CHO cell surface. The test can be described thus: FACS, cynoCEA-CHO cells.
Test [8] deals with T2, human CEACAM1 expressed on CHO cell …. The test can be described thus: FACS, CEACAM1-CHO cells. This is another data set of the same source.

Read-outs that look alike come from different tables or passages of the source.

B1: mAb67 (antibody, V domains shown)
VH: EVQLQQSGPELVKPGASVKIYCKASGYTFTDYHMNWVKQSHGKSLEWIGDINPDIGGTSYNQNFKGKATLTVDKSSSTAYMELRSLTSEDSAVYYCSRWDFDSFANWGQGTLVTVSA
VL: DIVMTQSPASLAMSLGKRATISCRASESVSIIGTNLIHWYQQKPGQPPKLLIYHASNLETGVPARFSGSGSGADFTLTIDPVEGDDVALYYCLQSRKIPYTFGGGTKMEIK
notes: Murine hybridoma antibody
As a reminder, the EC50 is the concentration that produces a half-maximal response. Regarding B1, the EC50 in test [1] was determined as 1.9 nM; in test [3] it was 6 nM. The binding result in test [2] was “no binding”.

B2: mAb63 (antibody, V domains shown)
VH: EVQLQQSGPELVKPGASVKMSCKASGYTFTDFYMNWVRQSHGKSLEWIGDIFPKNGNTDYNRKFKDKATLTVDKSSNTVYMEFRSLTLEDSAIYFCARSGYGNYVFDYWGQGTIFTVSS
VL: DVQMTQTPSALSASLGDRVTISCRTSQDINIYLNWYQQKPDGTVKLLIYYRSGLLSGVPSRFSGSGSGTDYSLTISNLEPEDIATYFCQQGNTLPPTFGGGTKLEIK
notes: Murine hybridoma antibody
With B2, the EC50 in test [1] is 3.62 nM; in test [3], 2.88 nM. Besides, the “maximum ratio of fluorescence signals (absence of sCEA / presence of sCEA)” value in test [4] turned out to be 1.43. In addition, the binding result in test [2] is reported as “no binding”.

B3: Hu47-14 (antibody, human IgG1, kappa, V domains shown)
VH: EVQLVQSGSELKKPGASVKVSCKASGYTFTTYGMSWVKQAPGQGLKWMGWINTYSGVPTYASDFKGRFVFSLDTSVSTAYLQISSLKAEDTAVYYCARRGNYGRWDFDVWGQGTTVTVSS
VL: EIVLTQSPDFQSVTPKEKVTITCSVSSTISSSNLHWYQQKPDQSPKPLIYGTSNLASGVPSRFSGSGSGTDYTLTINSLEAEDAATYYCQQWSIYPLTFGQGTKLEIKR
notes: Humanized IgG1/kappa; h47VH4 + h47VL2
The Kd is the free concentration of one partner at which half of the binding sites on the other are occupied at equilibrium, for simple one-to-one binding. In test [5], B3 yielded a Kd of 1430 nM. In addition, the EC50 in test [6] was 4.19 nM; in test [7], 2.7 nM. Further, the binding result in test [8] was “no binding”.

B4: Labetuzumab (antibody, human IgG1, kappa, V domains shown)
VH: EVQLVESGGGVVQPGRSLRLSCSASGFDFTTYWMSWVRQAPGKGLEWIGEIHPDSSTINYAPSLKDRFTISRDNAKNTLFLQMDSLRPEDTGVYFCASLYFGFPWFAYWGQGTPVTVSS
VL: DIQLTQSPSSLSASVGDRVTITCKASQDVGTSVAWYQQKPGKAPKLLIYWTSTRHTGVPSRFSGSGSGTDFTFTISSLQPEDIATYYCQQYSLYRSFGQGTKVEIKR
notes: Positive control antibody; also called Lmab; antibody in Lmab-CL2A-SN38
Take B4: the dissociation constant Kd in test [5] was found to be 5.93 nM. The molecule further came in with a concentration for a half-maximal effect (EC50) in test [6] of 2.45 nM. The binding result in test [7] and in test [8] was “no binding” each time.

B5: mAb103 (antibody, V domains shown)
VH: QIQLVQSGPELKKPGETVKISCKASGYTFTTYGVIWVKQAPGKGLKWMGWINTYSGVPTYADDFKGRFAFSLETSASTAFLQINNLKNEDTATYFCARKKTLTTVTPWFAYWGQGTLVTVSA
VL: DLVVTQSSSASFSLGASAKLTCTLSSQHSTYTIEWYQQQPLKPPKYVMELKKDGSHSTGDGIPDRFSGSSSGADRYLTISNIQPEDEAIYICGVGNTIKEQFVYVFGGGTKVTVL
notes: Murine hybridoma antibody
Take B5: the EC50 is 3.94 nM in test [1] and 0.71 nM in test [3]. Moreover, the “maximum ratio of fluorescence signals (absence of sCEA / presence of sCEA)” value in test [4] amounted to 1.02. For the same molecule, in test [2], the binding result is given as “no binding”.

B6: mAb47 (antibody, V domains shown)
VH: QIQLVQSGPELKKPGETVKISCKASGYTFTTYGMSWVKQAPGKGLKWMGWINTYSGVPTYADDFKGRFAFSLETSASTAYLQINNLKNEDTATYFCARRGNYGRWDFDVWGTGTTVTVSS
VL: EIVLTQSPALMAASPGEKVTITCSVSSTISSSNLHWYQQKSETSPKPWIYGTSNLASGVPVRFSGSGSGTSYSLTISSMEAEDAATYYCQQWSIYPLTFGAGTKLELK
notes: Murine hybridoma antibody
Regarding B6, the figures for the concentration giving a half-maximal response (EC50) in test [1] and in test [3] were 2.1 nM and 1.66 nM, respectively. Further, the binding result in test [2] was “no binding”.
